# In article PMC6341091:
# B1: FOXP3: TMG (protein)
# parent chain: MPNPRPAKPMAPSLALGPSPGVLPSWKTAPKGSELLGTRGSGGPFQGRDLRSGAHTSSSLNPLPPSQLQLPTVPLVMVAPSGARLGPSPHLQALLQDRPHFMHQLSTVDAHAQTPVLQVRPLDNPAMISLPPPSAATGVFSLKARPGLPPGINVASLEWVSREPALLCTFPRSGTPRKDSNLLAAPQGSYPLLANGVCKWPGCEKVFEEPEEFLKHCQADHLLDEKGKAQCLLQREVVQSLEQQLELEKEKLGAMQAHLAGKMALAKAPSVASMDKSSCCIVATSTQGSVLPAWSAPREAPDGGLFAVRRHLWGSHGNSSFPEFFHNMDYFKYHNMRPPFTYATLIRWAILEAPERQRTLNEIYHWFTRMFAYFRNHPATWKNAIRHNLSLHKCFVRVESEKGAVWTVDEFEFRKKRSQRPNKCSNPCP
# B2: FOXP3: OGT overexpression (protein)
# parent chain: B1 parent chain
# B3: FOXP3: ST045849 (protein)
# parent chain: B1 parent chain
# B4: FOXP3: OGA overexpression (protein)
# parent chain: B1 parent chain
# B5: FOXP3: FOXP3-5A (protein)
# parent chain: B1 parent chain
# Experiments:
# [1] = CHX chase, HEK 293, western blot; conditions: control: no OGT/OGA overexpression or no inhibitor
# [2] = western blot of total FOXP3, HEK 293; conditions: control: no OGT/OGA overexpression or no inhibitor
# [3] = retroviral transduction of CD4+CD25- T cells, FOXP3 MFI; conditions: glycan lost; control: wild-type FOXP3
# [4] = not described in main text (Supplementary Fig. 2F); conditions: glycan lost; control: wild-type FOXP3
# [5] = CHX chase, HEK 293, OGT overexpression, western blot; conditions: glycan lost; control: wild-type FOXP3
Protein,degradation_or_half_life ([1]; glycan gained),expression_or_secretion ([2]; glycan gained),degradation_or_half_life ([1]; glycan lost),expression_or_secretion ([2]; glycan lost),also measured
B1,increases,increases,–,–,–
B2,increases,increases,–,–,–
B3,–,–,decreases,decreases,–
B4,–,–,decreases,decreases,–
B5,–,–,–,–,expression_or_secretion [3]: decreases; other: OGT-induced transcriptional suppression activity [4]: abolishes; degradation_or_half_life [5]: decreases
